Experimental findings from paper doi:10.1101/2025.03.28.645892 (2025) are described below.

Experiment [1] has as its target T1, Arabidopsis thaliana UFD1B (Arabidopsis thaliana, UniProt Q9SJV0 1-340).
T1 chain: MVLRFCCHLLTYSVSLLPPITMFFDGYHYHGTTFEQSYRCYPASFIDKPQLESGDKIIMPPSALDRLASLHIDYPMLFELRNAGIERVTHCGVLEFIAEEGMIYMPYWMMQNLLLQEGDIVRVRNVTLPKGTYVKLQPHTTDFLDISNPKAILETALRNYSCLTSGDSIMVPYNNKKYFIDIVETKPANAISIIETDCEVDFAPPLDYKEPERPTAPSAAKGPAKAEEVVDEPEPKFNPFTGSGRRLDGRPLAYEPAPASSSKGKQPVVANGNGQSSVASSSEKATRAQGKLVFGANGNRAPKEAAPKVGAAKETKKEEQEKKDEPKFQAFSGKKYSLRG
The experiment can be described thus: MST; pH 6.5; AMPPNP.

For experiment [2], the target named is T1, Arabidopsis thaliana UFD1B. The experiment can be described thus: MST; pH 7.5; AMPPNP.
Experiment [3] addresses T1, Arabidopsis thaliana UFD1B. The experiment can be described thus: ITC; AMPPNP; AtCDC48A saturated with AtNPL4. (In ITC the heat of successive injections is recorded.)
Experiment [4] addresses T1, Arabidopsis thaliana UFD1B. The experiment is described as follows: MST; pH 6.5.
Experiment [5] concerns the target T1, Arabidopsis thaliana UFD1B. The experiment is described as follows: MST; pH 7.5.
In another experiment the target is T2, AtNPL4B F105A (Arabidopsis thaliana, UniProt Q9LYC2 1-413, F105A).
T2 sequence: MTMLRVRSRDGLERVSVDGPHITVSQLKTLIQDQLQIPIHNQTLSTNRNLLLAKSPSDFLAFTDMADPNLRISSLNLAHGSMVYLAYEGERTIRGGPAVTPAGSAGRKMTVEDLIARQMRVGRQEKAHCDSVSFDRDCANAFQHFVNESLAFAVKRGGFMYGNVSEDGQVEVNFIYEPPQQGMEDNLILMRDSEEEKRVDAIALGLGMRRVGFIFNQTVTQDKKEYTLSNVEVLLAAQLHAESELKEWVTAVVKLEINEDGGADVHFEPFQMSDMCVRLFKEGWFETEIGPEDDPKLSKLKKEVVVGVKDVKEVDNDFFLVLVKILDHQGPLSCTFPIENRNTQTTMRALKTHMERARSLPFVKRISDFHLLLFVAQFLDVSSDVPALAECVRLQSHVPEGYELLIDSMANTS
The experiment is described as follows: ITC; AMPPNP.

The target of a further experiment is T3, AtNPL4B UBXL domain (Arabidopsis thaliana, UniProt Q9LYC2 1-89).
T3 chain: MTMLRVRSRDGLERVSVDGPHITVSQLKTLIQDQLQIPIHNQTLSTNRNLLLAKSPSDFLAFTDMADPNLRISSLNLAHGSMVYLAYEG
The experiment can be described thus: ITC; AMPPNP.

B1: AtCDC48A saturated with AtNPL4 (complex)
chain 1: MSTPAESSDSKSKKDFSTAILERKKSPNRLVVDEAINDDNSVVSLHPATMEKLQLFRGDTILIKGKKRKDTVCIALADETCEEPKIRMNKVVRSNLRVRLGDVISVHQCPDVKYGKRVHILPVDDTVEGVTGNLFDAYLKPYFLEAYRPVRKGDLFLVRGGMRSVEFKVIETDPAEYCVVAPDTEIFCEGEPVKREDEERLDDVGYDDVGGVRKQMAQIRELVELPLRHPQLFKSIGVKPPKGILLYGPPGSGKTLIARAVANETGAFFFCINGPEIMSKLAGESESNLRKAFEEAEKNAPSIIFIDEIDSIAPKREKTNGEVERRIVSQLLTLMDGLKSRAHVIVMGATNRPNSIDPALRRFGRFDREIDIGVPDEIGRLEVLRIHTKNMKLAEDVDLERISKDTHGYVGADLAALCTEAALQCIREKMDVIDLEDDSIDAEILNSMAVTNEHFHTALGNSNPSALRETVVEVPNVSWNDIGGLENVKRELQETVQYPVEHPEKFEKFGMSPSKGVLFYGPPGCGKTLLAKAIANECQANFISVKGPELLTMWFGESEANVREIFDKARQSAPCVLFFDELDSIATQRGGGSGGDGGGAADRVLNQLLTEMDGMNAKKTVFIIGATNRPDIIDSALLRPGRLDQLIYIPLPDEDSRLNIFKAALRKSPIAKDVDIGALAKYTQGFSGADITEICQRACKYAIRENIEKDIEKEKRRSENPEAMEEDGVDEVSEIKAAHFEESMKYARRSVSDADIRKYQAFAQTLQQSRGFGSEFRFENSAGSGATTGVADPFATSAAAAGDDDDLYN
chain 2: MMMLRIRSRDGLERVTAEGAHITVSQLKTLIADQLQIPLHKQTLSTNRDLLLAKTPADLLAFTDLTDPNLPLSSLNLGHGSMLYLAYDGERSIPGAPPVTPAGSFGRKMTVDDLIARQMRVTRQETSHCDSVSFDRDAANAFQHYVNESLAFAVKRGGFMYGTVTEEGQVEVDFIYEPPQQGTEANLILMRDADEEKRVDAIAMGLGMRRVGFIFNQTVVQDKTEYTLSNAEVLQAAELHAESELKEWVTAVVKLEVNEDGGADVHFEAFQMSDMCIRLFKEEWFETEIMPDDDPKLSKMKKEVVVGVKDLKEVDNDFFLVLVRILDHQGPLSSTFPIENRSSRATMRALKTHLDRAKSLPLVKKMSDFHLLLFVAQFLDVSSDVPALAECVRLQSPVPEGYALLIESMANTC
modifications: Alexa-488 dye label in the MST experiments only
A word on the Kd: it is the equilibrium constant for the complex coming apart. High values mean weaker binding, low ones tighter binding. In the case of B1, the dissociation constant (Kd) in experiment [1] came out at 2.9 µM; in experiment [2] it was 4.6 µM; in experiment [3] it was 3.8 µM.

B2: Arabidopsis thaliana NPL4 (natural protein)
chain: MMMLRIRSRDGLERVTAEGAHITVSQLKTLIADQLQIPLHKQTLSTNRDLLLAKTPADLLAFTDLTDPNLPLSSLNLGHGSMLYLAYDGERSIPGAPPVTPAGSFGRKMTVDDLIARQMRVTRQETSHCDSVSFDRDAANAFQHYVNESLAFAVKRGGFMYGTVTEEGQVEVDFIYEPPQQGTEANLILMRDADEEKRVDAIAMGLGMRRVGFIFNQTVVQDKTEYTLSNAEVLQAAELHAESELKEWVTAVVKLEVNEDGGADVHFEAFQMSDMCIRLFKEEWFETEIMPDDDPKLSKMKKEVVVGVKDLKEVDNDFFLVLVRILDHQGPLSSTFPIENRSSRATMRALKTHLDRAKSLPLVKKMSDFHLLLFVAQFLDVSSDVPALAECVRLQSPVPEGYALLIESMANTC
modifications: Alexa-488 dye label in the MST experiments only
As for B2, the Kd in experiment [4] is 75.4 µM; in experiment [5], 256 µM.

B3: Arabidopsis thaliana CDC48A (enzyme)
chain: MSTPAESSDSKSKKDFSTAILERKKSPNRLVVDEAINDDNSVVSLHPATMEKLQLFRGDTILIKGKKRKDTVCIALADETCEEPKIRMNKVVRSNLRVRLGDVISVHQCPDVKYGKRVHILPVDDTVEGVTGNLFDAYLKPYFLEAYRPVRKGDLFLVRGGMRSVEFKVIETDPAEYCVVAPDTEIFCEGEPVKREDEERLDDVGYDDVGGVRKQMAQIRELVELPLRHPQLFKSIGVKPPKGILLYGPPGSGKTLIARAVANETGAFFFCINGPEIMSKLAGESESNLRKAFEEAEKNAPSIIFIDEIDSIAPKREKTNGEVERRIVSQLLTLMDGLKSRAHVIVMGATNRPNSIDPALRRFGRFDREIDIGVPDEIGRLEVLRIHTKNMKLAEDVDLERISKDTHGYVGADLAALCTEAALQCIREKMDVIDLEDDSIDAEILNSMAVTNEHFHTALGNSNPSALRETVVEVPNVSWNDIGGLENVKRELQETVQYPVEHPEKFEKFGMSPSKGVLFYGPPGCGKTLLAKAIANECQANFISVKGPELLTMWFGESEANVREIFDKARQSAPCVLFFDELDSIATQRGGGSGGDGGGAADRVLNQLLTEMDGMNAKKTVFIIGATNRPDIIDSALLRPGRLDQLIYIPLPDEDSRLNIFKAALRKSPIAKDVDIGALAKYTQGFSGADITEICQRACKYAIRENIEKDIEKEKRRSENPEAMEEDGVDEVSEIKAAHFEESMKYARRSVSDADIRKYQAFAQTLQQSRGFGSEFRFENSAGSGATTGVADPFATSAAAAGDDDDLYN
As to B3, the Kd with AtNPL4B F105A was found to be 4.6 µM; with AtNPL4B UBXL domain it was 3.2 µM.
